# T1: cynomolgus monkey transferrin receptor 1 (cTfR1) (cynomolgus monkey (Macaca fascicularis), UniProt Q5RDH6 89-760 (Pongo abelii entry), limits assumed)
# T1 construct: Recombinant cynomolgus TfR1; also called cyTfR1; cyno TfR1
# T1 chain: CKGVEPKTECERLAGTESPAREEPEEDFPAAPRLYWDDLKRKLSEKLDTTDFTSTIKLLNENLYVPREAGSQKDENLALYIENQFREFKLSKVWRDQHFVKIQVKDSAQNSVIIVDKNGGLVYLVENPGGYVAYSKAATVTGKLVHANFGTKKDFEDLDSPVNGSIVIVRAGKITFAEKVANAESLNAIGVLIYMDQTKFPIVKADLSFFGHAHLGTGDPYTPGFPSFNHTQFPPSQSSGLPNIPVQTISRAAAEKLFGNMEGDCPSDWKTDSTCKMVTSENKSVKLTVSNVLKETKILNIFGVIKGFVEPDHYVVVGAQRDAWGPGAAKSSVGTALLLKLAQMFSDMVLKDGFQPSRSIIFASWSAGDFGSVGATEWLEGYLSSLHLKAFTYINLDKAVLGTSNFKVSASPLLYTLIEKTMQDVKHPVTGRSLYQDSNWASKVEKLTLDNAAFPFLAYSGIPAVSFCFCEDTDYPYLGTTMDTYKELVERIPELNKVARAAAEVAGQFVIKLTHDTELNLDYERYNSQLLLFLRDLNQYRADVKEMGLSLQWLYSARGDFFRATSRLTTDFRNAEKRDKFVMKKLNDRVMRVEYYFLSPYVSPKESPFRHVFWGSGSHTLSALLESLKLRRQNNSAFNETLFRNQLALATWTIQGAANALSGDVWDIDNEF
# Tests used:
# [1] = molecular target: T1, cynomolgus monkey transferrin receptor …; experiment: ELISA, cyno TfR1, Fab, day 0 of thermal stability test
# [2] = molecular target: T1, cynomolgus monkey transferrin receptor …; experiment: ELISA on plate-coated cyno TfR1, unconjugated Fab
# [3] = molecular target: T1, cynomolgus monkey transferrin receptor …; experiment: ELISA, cyno TfR1, Fab after 9 days at 40 C
# [4] = molecular target: T1, cynomolgus monkey transferrin receptor …; experiment: ELISA on plate-coated cyno TfR1, Fab-ASO300 conjugate
# [5] = molecular target: T1, cynomolgus monkey transferrin receptor …; experiment: ELISA, cyno TfR1, Fab-ASO300 conjugate
# [6] = molecular target: T2, human transferrin receptor 1 (hTfR1) (human, UniProt P02786 89-760); experiment: ELISA on plate-coated human TfR1, Fab-ASO300 conjugate
# T2 construct: Recombinant human TfR1; also called huTfR1; Human TfR1
# T2 sequence (P02786 89-760 limits assumed): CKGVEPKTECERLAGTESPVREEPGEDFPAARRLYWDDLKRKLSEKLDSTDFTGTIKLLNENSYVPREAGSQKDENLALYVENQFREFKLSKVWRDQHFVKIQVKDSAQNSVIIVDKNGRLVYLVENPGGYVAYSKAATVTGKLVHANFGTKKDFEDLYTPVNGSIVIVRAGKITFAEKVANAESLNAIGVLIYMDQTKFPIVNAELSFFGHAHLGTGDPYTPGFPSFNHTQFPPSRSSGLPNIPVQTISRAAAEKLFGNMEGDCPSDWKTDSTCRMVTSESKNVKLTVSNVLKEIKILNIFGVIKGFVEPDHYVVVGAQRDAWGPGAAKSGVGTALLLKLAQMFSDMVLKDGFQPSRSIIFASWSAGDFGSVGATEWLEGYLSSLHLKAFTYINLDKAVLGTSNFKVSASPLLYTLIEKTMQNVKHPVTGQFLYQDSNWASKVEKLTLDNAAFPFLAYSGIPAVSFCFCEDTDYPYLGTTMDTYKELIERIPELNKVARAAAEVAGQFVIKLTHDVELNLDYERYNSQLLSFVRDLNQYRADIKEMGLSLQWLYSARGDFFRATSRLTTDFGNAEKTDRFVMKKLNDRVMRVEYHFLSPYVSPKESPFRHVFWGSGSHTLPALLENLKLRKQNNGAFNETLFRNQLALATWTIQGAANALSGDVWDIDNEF
Binder,Binding affinity cyno TfR1 d 0 [1] [nM],Fab binding affinity ELISA [2] [nM],Binding affinity cyno TfR1 d 9 [3] [nM],Conjugate binding affinity ELISA [4] [nM],DMPK oligo conjugate binding to cyno TfR1 [5] [nM],Conjugate binding affinity ELISA [6] [nM]
"humanized anti-TfR Fab 5H12 VH5 (C33Y)/Vk4 (Fab, V domains shown, also called 5H12 (VH4-C33Y/Vk4)) VH: QVQLVQSGAEVKKPGASVKVSCKASGYSFTDYYINWVRQAPGQGLEWMGWIYPGSGNTRYSERFKGRVTITRDTSASTAYMELSSLRSEDTAVYYCAREDYYPYHGMDYWGQGTLVTVSS VL: DIVMTQSPDSLAVSLGERATINCRASESVDGYDNSFMHWYQQKPGQPPKLLIFRASNLESGVPDRFSGSGSGTDFTLTISSLQAEDVAVYYCQQSSEDPWTFGQGTKLEIKR",3.3,3.3,0.26,–,–,–
"humanized anti-TfR Fab 5H12 VH5 (C33Y)/Vk4 conjugated to DMPK-targeting oligonucleotide ASO300 (Fab, V domains shown, Fab conjugated to oligonucleotide ASO300; chain and residue not stated, Fab-oligonucleotide conjugate; also called 5H12 (VH4-C33Y/Vk4) conjugate) VH: QVQLVQSGAEVKKPGASVKVSCKASGYSFTDYYINWVRQAPGQGLEWMGWIYPGSGNTRYSERFKGRVTITRDTSASTAYMELSSLRSEDTAVYYCAREDYYPYHGMDYWGQGTLVTVSS VL: DIVMTQSPDSLAVSLGERATINCRASESVDGYDNSFMHWYQQKPGQPPKLLIFRASNLESGVPDRFSGSGSGTDFTLTISSLQAEDVAVYYCQQSSEDPWTFGQGTKLEIKR",–,–,–,3.3,13.9,23.7
"humanized anti-TfR Fab 5H12 VH5 (C33D)/Vk4 conjugated to DMPK-targeting oligonucleotide ASO300 (Fab, V domains shown, Fab conjugated to oligonucleotide ASO300; chain and residue not stated, Fab-oligonucleotide conjugate; The protein chains are those of the unconjugated Fab) VH: QVQLVQSGAEVKKPGASVKVSCKASGYSFTDYDINWVRQAPGQGLEWMGWIYPGSGNTRYSERFKGRVTITRDTSASTAYMELSSLRSEDTAVYYCAREDYYPYHGMDYWGQGTLVTVSS VL: DIVMTQSPDSLAVSLGERATINCRASESVDGYDNSFMHWYQQKPGQPPKLLIFRASNLESGVPDRFSGSGSGTDFTLTISSLQAEDVAVYYCQQSSEDPWTFGQGTKLEIKR",–,–,–,10.2,10.2,110
"humanized anti-TfR Fab 5H12 VH5 (C33D)/Vk4 (Fab, V domains shown) VH: QVQLVQSGAEVKKPGASVKVSCKASGYSFTDYDINWVRQAPGQGLEWMGWIYPGSGNTRYSERFKGRVTITRDTSASTAYMELSSLRSEDTAVYYCAREDYYPYHGMDYWGQGTLVTVSS VL: DIVMTQSPDSLAVSLGERATINCRASESVDGYDNSFMHWYQQKPGQPPKLLIFRASNLESGVPDRFSGSGSGTDFTLTISSLQAEDVAVYYCQQSSEDPWTFGQGTKLEIKR",3.5,3.5,0.63,–,–,–
"humanized anti-TfR Fab 5H12 VH5 (C33Y)/Vk3 (Fab, V domains shown) VH: QVQLVQSGAEVKKPGASVKVSCKASGYSFTDYYINWVRQAPGQGLEWMGWIYPGSGNTRYSERFKGRVTITRDTSASTAYMELSSLRSEDTAVYYCAREDYYPYHGMDYWGQGTLVTVSS VL: DIVLTQSPDSLAVSLGERATINCRASESVDGYDNSFMHWYQQKPGQPPKLLIFRASNLESGVPDRFSGSGSRTDFTLTISSLQAEDVAVYYCQQSSEDPWTFGQGTKLEIKR",2.1,2.1,0.69,–,–,–
"humanized anti-TfR Fab 5H12 VH5 (C33Y)/Vk3 conjugated to DMPK-targeting oligonucleotide ASO300 (Fab, V domains shown, Fab conjugated to oligonucleotide ASO300; chain and residue not stated, Fab-oligonucleotide conjugate; The protein chains are those of the unconjugated Fab) VH: QVQLVQSGAEVKKPGASVKVSCKASGYSFTDYYINWVRQAPGQGLEWMGWIYPGSGNTRYSERFKGRVTITRDTSASTAYMELSSLRSEDTAVYYCAREDYYPYHGMDYWGQGTLVTVSS VL: DIVLTQSPDSLAVSLGERATINCRASESVDGYDNSFMHWYQQKPGQPPKLLIFRASNLESGVPDRFSGSGSRTDFTLTISSLQAEDVAVYYCQQSSEDPWTFGQGTKLEIKR",–,–,–,2.3,–,33.4
"humanized anti-TfR Fab 3A4 VH3 (N54T)/Vk4 (Fab, V domains shown) VH: EVQLVQSGSELKKPGASVKVSCTASGFNIKDDYMYWVRQPPGKGLEWIGWIDPETGDTEYASKFQDRVTVTADTSTNTAYMELSSLRSEDTAVYYCTLWLRRGLDYWGQGTLVTVSS VL: DIVMTQSPLSLPVTPGEPASISCRSSKSLLHSNGYTYLFWFQQRPGQSPRLLIYRMSNLASGVPDRFSGSGSGTDFTLKISRVEAEDVGVYYCMQHLEYPFTFGGGTKVEIKR",156,156,128,–,–,–
"humanized anti-TfR Fab 3A4 VH3 (N54T)/Vk4 conjugated to DMPK-targeting oligonucleotide ASO300 (Fab, V domains shown, Fab conjugated to oligonucleotide ASO300; chain and residue not stated, Fab-oligonucleotide conjugate; The protein chains are those of the unconjugated Fab) VH: EVQLVQSGSELKKPGASVKVSCTASGFNIKDDYMYWVRQPPGKGLEWIGWIDPETGDTEYASKFQDRVTVTADTSTNTAYMELSSLRSEDTAVYYCTLWLRRGLDYWGQGTLVTVSS VL: DIVMTQSPLSLPVTPGEPASISCRSSKSLLHSNGYTYLFWFQQRPGQSPRLLIYRMSNLASGVPDRFSGSGSGTDFTLKISRVEAEDVGVYYCMQHLEYPFTFGGGTKVEIKR",–,–,–,4.7,5.12,2.8
"humanized anti-TfR Fab 3A4 VH3/Vk4 conjugated to DMPK-targeting oligonucleotide ASO300 (Fab, V domains shown, Fab conjugated to oligonucleotide ASO300; chain and residue not stated, Fab-oligonucleotide conjugate; The protein chains are those of the unconjugated Fab) VH: EVQLVQSGSELKKPGASVKVSCTASGFNIKDDYMYWVRQPPGKGLEWIGWIDPENGDTEYASKFQDRVTVTADTSTNTAYMELSSLRSEDTAVYYCTLWLRRGLDYWGQGTLVTVSS VL: DIVMTQSPLSLPVTPGEPASISCRSSKSLLHSNGYTYLFWFQQRPGQSPRLLIYRMSNLASGVPDRFSGSGSGTDFTLKISRVEAEDVGVYYCMQHLEYPFTFGGGTKVEIKR",–,–,–,7.6,7.59,2.8
"humanized anti-TfR Fab 3A4 VH3 (N54S)/Vk4 conjugated to DMPK-targeting oligonucleotide ASO300 (Fab, V domains shown, Fab conjugated to oligonucleotide ASO300; chain and residue not stated, Fab-oligonucleotide conjugate; The protein chains are those of the unconjugated Fab) VH: EVQLVQSGSELKKPGASVKVSCTASGFNIKDDYMYWVRQPPGKGLEWIGWIDPESGDTEYASKFQDRVTVTADTSTNTAYMELSSLRSEDTAVYYCTLWLRRGLDYWGQGTLVTVSS VL: DIVMTQSPLSLPVTPGEPASISCRSSKSLLHSNGYTYLFWFQQRPGQSPRLLIYRMSNLASGVPDRFSGSGSGTDFTLKISRVEAEDVGVYYCMQHLEYPFTFGGGTKVEIKR",–,–,–,7.8,4.1,2.9
"humanized anti-TfR Fab 3M12 VH3/Vk2 (Fab, V domains shown) VH: QVQLQESGPGLVKPSQTLSLTCSVTGYSITSGYYWNWIRQPPGKGLEWMGYITFDGANNYNPSLKNRVSISRDTSKNQFSLKLSSVTAEDTATYYCTRSSYDYDVLDYWGQGTTVTVSS VL: DIQMTQSPSSLSASVGDRVTITCRASQDISNFLNWYQQKPGQPVKLLIYYTSRLHSGVPSRFSGSGSGTDFTLTISSLQPEDFATYFCQQGHTLPYTFGQGTKLEIKR",9.9,9.9,19.5,–,–,–
"humanized anti-TfR Fab 3M12 VH3/Vk2 conjugated to DMPK-targeting oligonucleotide ASO300 (Fab, V domains shown, Fab conjugated to oligonucleotide ASO300; chain and residue not stated, Fab-oligonucleotide conjugate; The protein chains are those of the unconjugated Fab) VH: QVQLQESGPGLVKPSQTLSLTCSVTGYSITSGYYWNWIRQPPGKGLEWMGYITFDGANNYNPSLKNRVSISRDTSKNQFSLKLSSVTAEDTATYYCTRSSYDYDVLDYWGQGTTVTVSS VL: DIQMTQSPSSLSASVGDRVTITCRASQDISNFLNWYQQKPGQPVKLLIYYTSRLHSGVPSRFSGSGSGTDFTLTISSLQPEDFATYFCQQGHTLPYTFGQGTKLEIKR",–,–,–,2.9,2.26,2.2
"humanized anti-TfR Fab 3M12 VH4/Vk2 (Fab, V domains shown) VH: QVQLQESGPGLVKPSQTLSLTCTVTGYSITSGYYWNWIRQPPGKGLEWIGYITFDGANNYNPSLKNRVSISRDTSKNQFSLKLSSVTAEDTATYYCTRSSYDYDVLDYWGQGTTVTVSS VL: DIQMTQSPSSLSASVGDRVTITCRASQDISNFLNWYQQKPGQPVKLLIYYTSRLHSGVPSRFSGSGSGTDFTLTISSLQPEDFATYFCQQGHTLPYTFGQGTKLEIKR",1.4,1.4,5.01,–,–,–
"humanized anti-TfR Fab 3M12 VH4/Vk3 conjugated to DMPK-targeting oligonucleotide ASO300 (Fab, V domains shown, Fab conjugated to oligonucleotide ASO300; chain and residue not stated, Fab-oligonucleotide conjugate; The protein chains are those of the unconjugated Fab) VH: QVQLQESGPGLVKPSQTLSLTCTVTGYSITSGYYWNWIRQPPGKGLEWIGYITFDGANNYNPSLKNRVSISRDTSKNQFSLKLSSVTAEDTATYYCTRSSYDYDVLDYWGQGTTVTVSS VL: DIQMTQSPSSLSASVGDRVTITCRASQDISNFLNWYQQKPGQPVKLLIYYTSRLHSGVPSRFSGSGSGTDFTLTISSLQPEDFATYYCQQGHTLPYTFGQGTKLEIKR",–,–,–,2.1,1.85,1.7
"humanized anti-TfR Fab 3M12 VH3/Vk3 (Fab, V domains shown) VH: QVQLQESGPGLVKPSQTLSLTCSVTGYSITSGYYWNWIRQPPGKGLEWMGYITFDGANNYNPSLKNRVSISRDTSKNQFSLKLSSVTAEDTATYYCTRSSYDYDVLDYWGQGTTVTVSS VL: DIQMTQSPSSLSASVGDRVTITCRASQDISNFLNWYQQKPGQPVKLLIYYTSRLHSGVPSRFSGSGSGTDFTLTISSLQPEDFATYYCQQGHTLPYTFGQGTKLEIKR",4.7,4.7,15.6,–,–,–

# Reference: patent US20240016952A1 (published 2024)
